Source: US8290713 (LONZA BIOLOGICS, dated 2012)
Non-standard residues stand in square brackets, D forms with d.

B1: ZP-0158 (peptide)
peptide: Ac-[dH][dH][dV][dI][dV][dA]-NH2
SMILES: CC[C@@H](C)[C@@H](NC(=O)[C@H](NC(=O)[C@@H](Cc1c[nH]cn1)NC(=O)[C@@H](Cc1c[nH]cn1)NC(C)=O)C(C)C)C(=O)N[C@@H](C(=O)N[C@H](C)C(N)=O)C(C)C
B2: ZP-0161 (peptide)
peptide: Ac-[dH][dH][dV][dK][dV][dA]-NH2
SMILES: CC(=O)N[C@H](Cc1c[nH]cn1)C(=O)N[C@H](Cc1c[nH]cn1)C(=O)N[C@@H](C(=O)N[C@H](CCCCN)C(=O)N[C@@H](C(=O)N[C@H](C)C(N)=O)C(C)C)C(C)C
B3: ZP-0162 (peptide)
peptide: Ac-[dH][dH][dV][dE][dV][dA]-NH2
SMILES: CC(=O)N[C@H](Cc1c[nH]cn1)C(=O)N[C@H](Cc1c[nH]cn1)C(=O)N[C@@H](C(=O)N[C@H](CCC(=O)O)C(=O)N[C@@H](C(=O)N[C@H](C)C(N)=O)C(C)C)C(C)C
B4: ZP-0168 (peptide)
peptide: Ac-[dH][dH][dV][dI][dV][dP]-NH2
SMILES: CC[C@@H](C)[C@@H](NC(=O)[C@H](NC(=O)[C@@H](Cc1c[nH]cn1)NC(=O)[C@@H](Cc1c[nH]cn1)NC(C)=O)C(C)C)C(=O)N[C@@H](C(=O)N1CCC[C@@H]1C(N)=O)C(C)C
B5: ZP-0169 (peptide)
peptide: Ac-[dH][dH][dV][dI][dV][dV]-NH2
SMILES: CC[C@@H](C)[C@@H](NC(=O)[C@H](NC(=O)[C@@H](Cc1c[nH]cn1)NC(=O)[C@@H](Cc1c[nH]cn1)NC(C)=O)C(C)C)C(=O)N[C@@H](C(=O)N[C@@H](C(N)=O)C(C)C)C(C)C
B6: ZP-0170 (peptide)
peptide: Ac-[dH][dH][dV][dI][dV][dT]-NH2
SMILES: CC[C@@H](C)[C@@H](NC(=O)[C@H](NC(=O)[C@@H](Cc1c[nH]cn1)NC(=O)[C@@H](Cc1c[nH]cn1)NC(C)=O)C(C)C)C(=O)N[C@@H](C(=O)N[C@@H](C(N)=O)[C@H](C)O)C(C)C
B7: ZP-0171 (peptide)
peptide: Ac-[dH][dH][dV][dI][dV][dY]-NH2
SMILES: CC[C@@H](C)[C@@H](NC(=O)[C@H](NC(=O)[C@@H](Cc1c[nH]cn1)NC(=O)[C@@H](Cc1c[nH]cn1)NC(C)=O)C(C)C)C(=O)N[C@@H](C(=O)N[C@H](Cc1ccc(O)cc1)C(N)=O)C(C)C
B8: ZP-0172 (peptide)
peptide: Ac-[dH][dH][dV][dI][dV][dW]-NH2
SMILES: CC[C@@H](C)[C@@H](NC(=O)[C@H](NC(=O)[C@@H](Cc1c[nH]cn1)NC(=O)[C@@H](Cc1c[nH]cn1)NC(C)=O)C(C)C)C(=O)N[C@@H](C(=O)N[C@H](Cc1c[nH]c2ccccc12)C(N)=O)C(C)C
B9: ZP-0175 (peptide)
peptide: Ac-[dH][dH][dT][dI][dV][dV]-NH2
SMILES: CC[C@@H](C)[C@@H](NC(=O)[C@H](NC(=O)[C@@H](Cc1c[nH]cn1)NC(=O)[C@@H](Cc1c[nH]cn1)NC(C)=O)[C@H](C)O)C(=O)N[C@@H](C(=O)N[C@@H](C(N)=O)C(C)C)C(C)C
B10: ZP-0179 (peptide)
peptide: Ac-[dH][dH][dT][dI][dV][dK]-NH2
SMILES: CC[C@@H](C)[C@@H](NC(=O)[C@H](NC(=O)[C@@H](Cc1c[nH]cn1)NC(=O)[C@@H](Cc1c[nH]cn1)NC(C)=O)[C@H](C)O)C(=O)N[C@@H](C(=O)N[C@H](CCCCN)C(N)=O)C(C)C
B11: ZP-0159 (peptide)
peptide: Ac-[dH][dH][dV][dV][dV][dA]-NH2
SMILES: CC(=O)N[C@H](Cc1c[nH]cn1)C(=O)N[C@H](Cc1c[nH]cn1)C(=O)N[C@@H](C(=O)N[C@@H](C(=O)N[C@@H](C(=O)N[C@H](C)C(N)=O)C(C)C)C(C)C)C(C)C
B12: ZP-0180 (peptide)
peptide: Ac-[dH][dH][dT][dV][dV][dA]-NH2
SMILES: CC(=O)N[C@H](Cc1c[nH]cn1)C(=O)N[C@H](Cc1c[nH]cn1)C(=O)N[C@@H](C(=O)N[C@@H](C(=O)N[C@@H](C(=O)N[C@H](C)C(N)=O)C(C)C)C(C)C)[C@H](C)O
B13: ZP-0181 (peptide)
peptide: Ac-[dH][dH][dT][dL][dV][dA]-NH2
SMILES: CC(=O)N[C@H](Cc1c[nH]cn1)C(=O)N[C@H](Cc1c[nH]cn1)C(=O)N[C@@H](C(=O)N[C@H](CC(C)C)C(=O)N[C@@H](C(=O)N[C@H](C)C(N)=O)C(C)C)[C@H](C)O
B14: ZP-0186 (peptide)
peptide: Ac-[dH][dH][dT][dL][dV][dV]-NH2
SMILES: CC(=O)N[C@H](Cc1c[nH]cn1)C(=O)N[C@H](Cc1c[nH]cn1)C(=O)N[C@@H](C(=O)N[C@H](CC(C)C)C(=O)N[C@@H](C(=O)N[C@@H](C(N)=O)C(C)C)C(C)C)[C@H](C)O
B15: ZP-0193 (peptide)
peptide: Ac-[dH][dH][dT][dE][dV][dY]-NH2
SMILES: CC(=O)N[C@H](Cc1c[nH]cn1)C(=O)N[C@H](Cc1c[nH]cn1)C(=O)N[C@@H](C(=O)N[C@H](CCC(=O)O)C(=O)N[C@@H](C(=O)N[C@H](Cc1ccc(O)cc1)C(N)=O)C(C)C)[C@H](C)O
B16: ZP-0194 (peptide)
peptide: Ac-[dH][dH][dT][dT][dV][dY]-NH2
SMILES: CC(=O)N[C@H](Cc1c[nH]cn1)C(=O)N[C@H](Cc1c[nH]cn1)C(=O)N[C@@H](C(=O)N[C@@H](C(=O)N[C@@H](C(=O)N[C@H](Cc1ccc(O)cc1)C(N)=O)C(C)C)[C@H](C)O)[C@H](C)O
B17: ZP-0202 (peptide)
peptide: Ac-[dQ][dY][dK][dV][dL][dI]-NH2
SMILES: CC[C@@H](C)[C@@H](NC(=O)[C@@H](CC(C)C)NC(=O)[C@H](NC(=O)[C@@H](CCCCN)NC(=O)[C@@H](Cc1ccc(O)cc1)NC(=O)[C@@H](CCC(N)=O)NC(C)=O)C(C)C)C(N)=O
B18: ZP-0204 (peptide)
peptide: Ac-[dQ][dY][dS][dV][dP][dI]-NH2
SMILES: CC[C@@H](C)[C@@H](NC(=O)[C@H]1CCCN1C(=O)[C@H](NC(=O)[C@@H](CO)NC(=O)[C@@H](Cc1ccc(O)cc1)NC(=O)[C@@H](CCC(N)=O)NC(C)=O)C(C)C)C(N)=O
B19: ZP-0205 (peptide)
peptide: Ac-[dQ][dY][dS][dP][dL][dI]-NH2
SMILES: CC[C@@H](C)[C@@H](NC(=O)[C@@H](CC(C)C)NC(=O)[C@H]1CCCN1C(=O)[C@@H](CO)NC(=O)[C@@H](Cc1ccc(O)cc1)NC(=O)[C@@H](CCC(N)=O)NC(C)=O)C(N)=O
B20: ZP-0206 (peptide)
peptide: Ac-[dQ][dY][dP][dV][dL][dI]-NH2
SMILES: CC[C@@H](C)[C@@H](NC(=O)[C@@H](CC(C)C)NC(=O)[C@H](NC(=O)[C@H]1CCCN1C(=O)[C@@H](Cc1ccc(O)cc1)NC(=O)[C@@H](CCC(N)=O)NC(C)=O)C(C)C)C(N)=O
B21: ZP-0207 (peptide)
peptide: Ac-[dQ][dP][dS][dV][dL][dI]-NH2
SMILES: CC[C@@H](C)[C@@H](NC(=O)[C@@H](CC(C)C)NC(=O)[C@H](NC(=O)[C@@H](CO)NC(=O)[C@H]1CCCN1C(=O)[C@@H](CCC(N)=O)NC(C)=O)C(C)C)C(N)=O
B22: ZP-0160 (peptide)
peptide: Ac-[dH][dH][dV][dL][dV][dA]-NH2
SMILES: CC(=O)N[C@H](Cc1c[nH]cn1)C(=O)N[C@H](Cc1c[nH]cn1)C(=O)N[C@@H](C(=O)N[C@H](CC(C)C)C(=O)N[C@@H](C(=O)N[C@H](C)C(N)=O)C(C)C)C(C)C

Molecular target: α-synuclein (UniProt P37840 1-140)
Test: cell-based or functional assay
Further: test concentration or dose not given here.

Binder	% decrease in ThT fluorescence [%]	% decrease in rate of aggregation [%]	% increase in Lag phase [%]
B1	15.1	18.4	32.5
B2	-5.9	2.3	19.7
B3	6.3	6.6	33.4
B4	-8.6	-5.4	29.8
B5	-0.5	-13.3	26.1
B6	24.5	29.3	29.4
B7	13.9	13.2	43.6
B8	-1.7	6.9	28.1
B9	21.9	16.8	89.7
B10	0.6	-0.6	30.4
B11	19.8	18.6	36.6
B12	19.8	18.4	30.3
B13	22.8	-1.2	29.4
B14	30.7	29.7	16.1
B15	8.7	-15.8	31.4
B16	11.6	7.7	38.8
B17	53.5	54.5	-28.8
B18	1.4	-5.6	23.6
B19	16.6	-11.9	30.6
B20	3.3	8.4	25.9
B21	5.5	3.6	29.7
B22	8.8	10.5	36.5
